Test results published in article PMC4121545.

System: Lac-mCherry (lac repressor-mCherry fusion, dimeric) (Escherichia coli)
Experiment: in vitro transcription repression (indirect), global MWC fit
Conditions: no effector, R conformer (KRO); 20 mM Mg2+; 2 mM spermidine; 20 mM Tris-HCl pH 7.9, 20 mM MgCl2, 1 mM DTT, 2 mM spermidine-HCl, NTPs (0.5 mM GTP/ATP/UTP, 0.25 mM CTP), 37 C, 30 min

O1 operator reporter, linearized 450 bp
Ka: 0.42 nM⁻¹
